Changes are numbered by the printed parent chain.
B1: BMD576_PapGLD WT_DAF-GPI: monovalent PapG modRNA LNP; RNA construct SEQ ID NO: 45 (nucleic acid)
chain: AGGAGGACUGGUCGAACCUGCAUAGUGAUCAUAAGGUCAGCAUAGCCACCAUGGAGACCGACACACUGCUGCUGUGGGUGCUUUUGUUGUGGGUGCCCGGUUCUACCGGAUGGAACAACAUCGUGUUCUACAGCCUGGGCAACGUGAACAGCUACCAAGGCGGCAACGUGGUGAUCACACAGAGACCUCAGUUCAUCACAAGCUGGAGACCCGGCAUCGCCACCGUGACCUGGAAUCAGUGCAACGGCCCCGAGUUCGCCGACGGCAGCUGGGCCUACUACAGAGAGUACAUCGCCUGGGUGGUGUUCCCCAAGAAGGUGAUGACCAAGAACGGCUACCCCCUGUUCAUCGAGGUGCACAACAAGGGCAGCUGGAGCGAGGAGAACACCGGCGACAGCGACAGCUACUUCUUCCUGAAGGGCUACAAGUGGGACGAGAGAGCCUUCGACGCCGGCAACCUGUGUCAGAAGCCCGGCGAGACCACAAGACUGACCGAGAAGUUCAACGACAUCAUCUUCAAGGUGGCCCUGCCCGCCGACCUGCCCCUGGGCGACUACAGCGUGACCAUCCCCUACACAAGCGGCAUUCAGAGACACUUCGCUAGCUACCUGGGCGCUAGAUUCAAGAUCCCCUACAACGUGGCCAAGACCCUGCCUAGAGAGAACGAGAUGCUGUUCCUGUUCAAGAACAUCGGCGGCAGUUCUGGUGGCGGUGGUUCAAGUGGUAGUGGCAGUUCAAGUGGGACAACACGACUGUUGAGCGGGCAUACGUGUUUUACGCUGACAGGUCUUCUGGGCACGCUGGUUACUAUGGGCUUGCUUACGUGAUGAGCUCGCUUUCUUGCUGUCCAAUUUCUAUUAAAGGUUCCUUUGUUCCCUAAGUCCAACUACUAAACUGGGGGAUAUUAUGAAGGGCCUUGAGCAUCUGGAUUCUGCCUAAUAAAAAACAUUUAUUUUCAUUGCAAAAAAAAAAAAAAAAAAAAAAAAAAAAAAAAAAAAAAAAAAAAAAAAAAAAAAAAAAAAAAAAAAAAAAAAAAAAAAAAAA
modifications: modRNA in LNP
B2: BMD576_PapGLD K172A_DAF-GPI: monovalent PapG modRNA LNP; RNA construct SEQ ID NO: 52 (nucleic acid)
chain: B1 chain with A624G, A625C, G626C
modifications: modRNA in LNP
B3: BMD576_PapG-DSF WT_DAF-GPI: monovalent PapG modRNA LNP; RNA construct SEQ ID NO: 65 (nucleic acid)
chain: AGGAGGACUGGUCGAACCUGCAUAGUGAUCAUAAGGUCAGCAUAGCCACCAUGGAGACCGACACCCUCCUGCUGUGGGUGCUGUUACUGUGGGUGCCCGGUAGCACCGGCUGGAACAACAUCGUGUUCUACAGCCUGGGCAACGUGAACAGCUACCAAGGCGGCAACGUGGUGAUCACACAGAGACCUCAGUUCAUCACAAGCUGGAGACCCGGCAUCGCCACCGUGACCUGGAAUCAGUGCAACGGCCCCGAGUUCGCCGACGGCAGCUGGGCCUACUACAGAGAGUACAUCGCCUGGGUGGUGUUCCCCAAGAAGGUGAUGACCAAGAACGGCUACCCCCUGUUCAUCGAGGUGCACAACAAGGGCAGCUGGAGCGAGGAGAACACCGGCGACAGCGACAGCUACUUCUUCCUGAAGGGCUACAAGUGGGACGAGAGAGCCUUCGACGCCGGCAACCUGUGUCAGAAGCCGGGGGAGACCACAAGACUUACCGAGAAGUUCAACGACAUCAUCUUCAAGGUGGCCCUGCCCGCCGACCUGCCCCUGGGCGACUACAGCGUGACCAUCCCCUACACAAGCGGCAUUCAGAGACACUUCGCUAGCUACCUGGGCGCUAGAUUCAAGAUCCCCUACAACGUGGCCAAGACCCUGCCUAGAGAGAACGAGAUGCUGUUCCUGUUCAAGAACAUCGGCGGCUGCAGACCUAGCGCUCAGAGCCUGGAGAUCAAGCACGGCGACCUGAGCAUCAACAGCGCCAACAACCACUACGCCGCUCAGACCCUGAGCGUGAGCUGCGACGUGCCCGCCAACAUCAGAUUCAUGCUGCUGAGAUCAACCACCCCCACCUACAGCCACGGCAAGAAGUUCAGCGUGGGCCUGGGCCACGGCUGGGACAGCAUCGUGAGCGUGAACGGCGUGGACACGGGCGAGACCACUAUGCGUUGGUACAAGGCCGGCACACAGAGCCUGACCAUCGGCAGCAGACUGUAUGGCGAAAGCUCCAAAAUCCAACCCGGCGUGCUGUCGGGGAGCGCCACCCUGCUGAUGAUACUGCCCGGAGGCAGCAGCGGCGGCGCCGACGUGCAGAUCAACAUCAGAGGCAACGUGUAUAUUCCGCCUAGCAGUGGUGGUGGGGGUAGCUCCGGCUCCGGAAGCAGCUGCGAGGGCAUCAGCCUGCUGGCUCAGAACACAAGCUGGCUGCUGCUGCUGCUGCUGAGCCUGAGCCUGCUGCAAGCCACCGACUUCAUGAGCCUGUGAUGAGCUCGCUUUCUUGCUGUCCAAUUUCUAUUAAAGGUUCCUUUGUUCCCUAAGUCCAACUACUAAACUGGGGGAUAUUAUGAAGGGCCUUGAGCAUCUGGAUUCUGCCUAAUAAAAAACAUUUAUUUUCAUUGCAAAAAAAAAAAAAAAAAAAAAAAAAAAAAAAAAAAAAAAAAAAAAAAAAAAAAAAAAAAAAAAAAAAAAAAAAAAAAAAAAA
modifications: modRNA in LNP

The molecules below were run on E. coli strain CFT073 expressing the fimbrial adhesin PapG (assay: PapG hemagglutination inhibition (HAI) assay on sera of mice immunized with PapG modRNA LNPs). Conditions: 1 μg, 50 μl IM, weeks 0, 4, bleed week 6, GMT of individual titers.
Format: in vivo
Excerpt: Escherichia coli to the uroepithelium of human kidney. The PapG lectin binds to the globoside (GbO4) glycolipid, which is enriched in urinary tract tissue and consists of the tetrasacharide GalNAcβ1-3Galα1-4Galβ1-4Glc linked to ceramide. Here we present the use of a hemagglutination inhibition assay (HAI) to determine vaccine functional responses to protein subunit PapG or mRNA-expressed PapG antigens. In this assay the agglutination of human red blood cells (hRBCs) expressing GbO4 is caused by live E. coli CFT073 bacteria expressing PapG. The HAI assay measures the ability of PapG-elicited antibodies to prevent hRBC agglutination, exemplifying inhibition of the key bacterial adherence mechanism leading to clinical pyelonephritis. The assay was used to characterize the functional activity of PapG monoclonal antibodies (mAbs) raised against a PapG lectin domain subunit antigen. PapG HAI data from a mouse immunogenicity study are described that evaluated various 5 monovalent PapG modRNA LNPs and a PapG subunit comparator.
In this mouse study immunogenicity of different PapG mRNA constructs were evaluated. […]
iii. PapG Hemagglutination Inhibition Assay (HAI) 1. Preparation of Single Use Frozen E. coli CFT073 Banks Frozen bacterial stocks for use in the PapG HAI are stored at a concentration of ˜15 OD/mL. For stock preparation, take 6 ×100 μL of frozen parental strain CFT073 glycerol stock to seed six overnight cultures with ˜85 mL Luria's Broth (LB) each in 250 mL vented flasks. Flasks are shaken at 200 rpm and 37° C. overnight. On the same day, prepare 100 mL LB media with 30% glycerol and 0.4% sucrose by mixing […] 80% Glycerol with 0.8 mL 50% Sucrose in 64 mL LB and pre-chill at 4° C. After ˜16 h growth, determine the OD600 nm of each flask with the SpectraMax M5e plate reader by adding 100 μL culture to 900 μL LB (1:10 dilution). After reading the OD600, harvest cells by pelleting in a centrifuge at 4,000g, 4° C., for 30 minute. Determine the total OD of each of the six flasks, by multiplying the volume by OD/mL of each flask and divide by 15 OD to give the appropriate pellet resuspension volume. Discard supernatants and resuspend all pellets in the pre-chilled LB cryopreservant containing 30% glycerol and 0.4% sucrose, with a final volume as calculated above. Pool all resuspended pellets and mix gently, then aliquot into 1 mL/cryotube, and freeze at −70° C.
2. Preparing 10% hRBC Working Solution From Stock
Gently mix human red blood cells (hRBC) bottle (Rockland) by rocking ˜20×times, pipet out 10 mL of the hRBCs into a 15 ml conical tube. Centrifuge at 2,000 rpm(˜990×g) for 10 minutes and 4° C. Aspirate and discard the supernatant, then resuspend the pellet with 9 mL 4° C. PBS. The packed hRBCs in 15 mL conical tube should constitute roughly 1 mL of this total volume. Store these 10% hRBCs at 4° C. until use. […]
iv. PapG Hemagglutination Inhibition (HAI) Assay
The PapG hemagglutination inhibition (HAI) assay uses human red blood cells (hRBCs), which naturally express the PapG ligand GbO4 (globotetraosyl ceramide) on the cell surface, and the E. coli strain CFT073 expressing the fimbrial adhesin PapG. Upon mixing bacteria with hRBCs, […] cells remain suspended (presenting as a cloudy well), while no binding results in the red blood cells falling out of solution towards the center of the well (observed as pellet).
The total final well volume is 100 μL, with serum dilutions comprising 25 μL of this volume, strain CFT073 cells in […] volume, and hRBCs in a 50 μL volume. The assay plate is a V-bottom plate to which 25 μL 4° C. PBS is initially added to all wells. The positive control wells receive an additional 25 μL 4° C. PBS. The no-serum negative control consists of E. coli CFT073 cells plus hRBCs only (resulting agglutinated well appears cloudy). To accommodate pre-diluted sera transferred from the serum Master Dilution plate (MDP) an extra 5 μL 4° C. PBS is added to wells in Row A of the assay plate (columns 1 to 12). […]

Molecule	Step Titer GMT (HAI)
B1	94,822
B2	98,165
B3	89,753

Same assay, conditions: 1 μg, 50 μl IM, weeks 0, 4, bleed week 6, serum pool

Molecule	Step Titer Pool (HAI)
B1	81,000
B2	81,000
B3	81,000

— US20260061042A1, “POLYNUCLEOTIDE COMPOSITIONS AND USES THEREOF” (Pfizer Inc., priority 2024, published 2026)
